Reference: patent publication US20210261648A1 (published 2021)
Positions count from the first letter of the chain named. Names may count otherwise.

T1: FcγRIIa type R extracellular domain with C-terminal His tag (human, UniProt P12318 34-217)
T1 chain: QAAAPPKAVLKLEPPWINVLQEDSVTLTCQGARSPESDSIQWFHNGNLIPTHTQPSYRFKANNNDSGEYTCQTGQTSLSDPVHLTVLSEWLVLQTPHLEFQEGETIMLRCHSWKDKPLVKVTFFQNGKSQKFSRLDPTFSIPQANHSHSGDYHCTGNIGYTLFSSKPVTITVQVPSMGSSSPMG

T2: FcγRIIb extracellular domain with C-terminal His tag (human, UniProt P31994 43-217)
T2 construct: extracellular domain; For crystallography it was expressed with kifunensine and trimmed with Endo F1; also called FcgRIIb; FcγRIIb extracellular region; not shown: His tag attached to the C terminus
T2 sequence (looked up): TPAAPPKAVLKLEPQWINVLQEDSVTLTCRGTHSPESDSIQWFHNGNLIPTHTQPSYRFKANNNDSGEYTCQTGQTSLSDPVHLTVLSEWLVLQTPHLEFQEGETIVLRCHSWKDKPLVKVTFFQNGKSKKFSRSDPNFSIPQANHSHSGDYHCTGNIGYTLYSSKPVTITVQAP

T3: FcγRIIa type H extracellular domain with C-terminal His tag (human, UniProt P12318 34-217)
T3 construct: extracellular domain; also called FcγRIIaH; FcgRIIaH; not shown: His tag attached to the C terminus
T3 sequence (looked up): T1 chain with R134H

B1: IL6R-F652/IL6R-L (antibody, human IgG1, kappa)
heavy: QVQLQESGPGLVKPSETLSLTCAVSGHSISHDHAWSWVRQPPGEGLEWIGFISYSGITNYNPSLQGRVTISRDNSKNTLYLQMNSLRAEDTAVYYCARSLARTTAMDYWGEGTLVTVSSASTKGPSVFPLAPSSKSTSGGTAALGCLVKDYFPEPVTVSWNSGALTSGVHTFPAVLQSSGLYSLSSVVTVPSSSLGTQTYICNVNHKPSNTKVDKKVEPKSCDKTHTCPPCPAPELLGGDSVFLFPPKPKDTLYISRTPEVTCVVVDVSHEDPEVKFNWYVDGVEVHNAKTKPREEQYNSTYRVVSVLTVLHQDWLNGKEYKCKVSNKALPAPIEKTISKAKGQPREPQVYTLPPSRDELTKNQVSLTCLVKGFYPSDIAVEWESNGQPENNYKTTPPVLDSDGSFFLYSKLTVDKSRWQQGNVFSCSVMHEALHYHYTQKSLSLSP
light: not shown
notes: IL6R-F11 (IL6R-G1d with M252Y/N434Y) with P238D
B2: IL6R-PD043/IL6R-L (antibody, human IgG1, kappa)
heavy: B1 heavy with L236Y
light: not shown
notes: PD variant; alterations introduced into IL6R-F11
B3: IL6R-PD079/IL6R-L (antibody, human IgG1, kappa)
heavy: B1 heavy with G239A
light: not shown
notes: as for B2
B4: IL6R-PD080/IL6R-L (antibody, human IgG1, kappa)
heavy: B1 heavy with G239D
light: not shown
notes: as for B2
B5: IL6R-PD081/IL6R-L (antibody, human IgG1, kappa)
heavy: B1 heavy with G239E
light: not shown
notes: as for B2
B6: IL6R-PD082/IL6R-L (antibody, human IgG1, kappa)
heavy: B1 heavy with G239F
light: not shown
notes: as for B2
B7: IL6R-PD086/IL6R-L (antibody, human IgG1, kappa)
heavy: B1 heavy with G239L
light: not shown
notes: as for B2
B8: IL6R-PD087/IL6R-L (antibody, human IgG1, kappa)
heavy: B1 heavy with G239M
light: not shown
notes: as for B2
B9: IL6R-PD094/IL6R-L (antibody, human IgG1, kappa)
heavy: B1 heavy with G239W
light: not shown
notes: as for B2
B10: IL6R-PD095/IL6R-L (antibody, human IgG1, kappa)
heavy: B1 heavy with G239Y
light: not shown
notes: as for B2
B11: IL6R-PD097/IL6R-L (antibody, human IgG1, kappa)
heavy: B1 heavy with S241D
light: not shown
notes: as for B2
B12: GpH7-G1d/GpL16-k0 (antibody, human IgG1, kappa)
heavy: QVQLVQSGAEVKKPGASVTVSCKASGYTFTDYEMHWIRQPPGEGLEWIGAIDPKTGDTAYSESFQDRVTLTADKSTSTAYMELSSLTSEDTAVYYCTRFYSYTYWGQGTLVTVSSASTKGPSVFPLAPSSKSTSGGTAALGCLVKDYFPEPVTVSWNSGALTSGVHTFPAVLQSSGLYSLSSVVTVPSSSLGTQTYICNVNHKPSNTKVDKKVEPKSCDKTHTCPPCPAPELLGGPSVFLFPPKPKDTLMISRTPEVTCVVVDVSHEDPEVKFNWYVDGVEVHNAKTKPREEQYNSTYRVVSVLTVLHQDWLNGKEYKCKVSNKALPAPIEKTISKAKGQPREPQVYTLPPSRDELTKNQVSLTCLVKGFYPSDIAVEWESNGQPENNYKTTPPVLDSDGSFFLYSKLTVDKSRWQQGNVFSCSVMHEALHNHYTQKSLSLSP
light: DIVMTQSPLSLPVTPGEPASISCQASESLVHSNRNTYLHWYLQKPGQSPQLLIYKVSNRFSGVPDRFSGSGSGTDFTLKISRVEAEDVGVYYCSQNTHVPPTFGQGTKVEIERTVAAPSVFIFPPSDEQLKSGTASVVCLLNNFYPREAKVQWKVDNALQSGNSQESVTEQDSKDSTYSLSSTLTLSKADYEKHKVYACEVTHQGLSSPVTKSFNRGEC
notes: Anti-glypican 3 IgG1 without C-terminal Gly and Lys
B13: GpH7-AP001/GpH7-BF648/GpL16-k0 (antibody, human IgG1, kappa, name in EU numbering)
heavy 1: QVQLVQSGAEVKKPGASVTVSCKASGYTFTDYEMHWIRQPPGEGLEWIGAIDPKTGDTAYSESFQDRVTLTADKSTSTAYMELSSLTSEDTAVYYCTRFYSYTYWGQGTLVTVSSASTKGPSVFPLAPSSKSTSGGTAALGCLVKDYFPEPVTVSWNSGALTSGVHTFPAVLQSSGLYSLSSVVTVPSSSLGTQTYICNVNHKPSNTKVDKKVEPKSCDKTHTCPPCPAPELLGGDSVFLFPPKPKDTLMISRTPEVTCVVVDVSHEDPEVKFNWYVDGVEVHNAKTKPREEQYNSTYRVVSVLTVLHQDWLNGKEYKCKVSNKALPAPIEKTISKAKGQPREPQVYTLPPSRKELTKNQVSLTCLVKGFYPSDIAVEWESNGQPENNYKTTPPVLDSDGSFFLYSKLTVDKSRWQQGNVFSCSVMHEALHNRYTQKSLSLSP
heavy 2: not shown
light: B12 light
notes: Heterodimerized anti-glypican 3 IgG1; P238D in both chains
B14: GpH7-A5/GpH7-B3/GpL16-k0 (antibody, human IgG1, kappa)
heavy 1: not shown
heavy 2: not shown
light: B12 light
notes: Heterodimerized anti-glypican 3 IgG1 (A5: D356K/H435R; B3: K439E); also called A5/B3
B15: GpH7-A5/GpH7-BF648/GpL16-k0 (antibody, human IgG1, kappa)
heavy 1: not shown
heavy 2: not shown
light: B12 light
notes: Heterodimerized anti-glypican 3 IgG1; P238D in the GpH7-B3 chain only
B16: GpH7-AP001/GpH7-BP032/GpL16-k0 (antibody, human IgG1, kappa)
heavy 1: B13 heavy 1
heavy 2: not shown
light: B12 light
notes: Heterodimerized anti-glypican 3 IgG1; copies: 1 + 1 + 2
B17: GpH7-AP001/GpH7-BP061/GpL16-k0 (antibody, human IgG1, kappa, name in EU numbering)
heavy 1: B13 heavy 1
heavy 2: not shown
light: B12 light
notes: Heterodimerized anti-glypican 3 IgG1
B18: IL6R-BP142/IL6R-L (antibody, human IgG1, kappa)
heavy: B1 heavy with Y254M, K328N, Y436N, K441E
light: not shown
notes: Alterations introduced into IL6R-B3
B19: IL6R-BP911/IL6R-L (antibody, human IgG1, kappa)
heavy: B1 heavy with Y254M, A332K, Y436N, K441E
light: not shown
notes: as for B18
B20: IL6R-BP912/IL6R-L (antibody, human IgG1, kappa)
heavy: B1 heavy with Y254M, A332R, Y436N, K441E
light: not shown
notes: as for B18

Columns and labels:
[1] = target: T1, FcγRIIa type R extracellular domain …; experiment: SPR binding amount, relative to IL6R-F652/IL6R-L
[2] = target: T2, FcγRIIb extracellular domain with …; experiment: SPR binding amount, relative to IL6R-F652/IL6R-L
[3] = target: T2, FcγRIIb extracellular domain with …; experiment: SPR binding amounts, FcgRIIb divided by FcgRIIaR
[4] = target: T1, FcγRIIa type R extracellular domain …; experiment: SPR binding amount, relative to GpH7-AP001/GpH7-BF648/GpL16-k0
[5] = target: T2, FcγRIIb extracellular domain with …; experiment: as above
[6] = target: T3, FcγRIIa type H extracellular domain …; experiment: SPR binding amount, relative to IL6R-BF648/IL6R-L
[7] = target: T4, FcγRIa extracellular domain with C-terminal His tag (human, UniProt P12314 16-292); experiment: SPR binding amount, relative to IL6R-BF648/IL6R-L
T4 construct: also called FcgRIa; not shown: His tag attached to the C terminus
T4 sequence (P12314 16-292): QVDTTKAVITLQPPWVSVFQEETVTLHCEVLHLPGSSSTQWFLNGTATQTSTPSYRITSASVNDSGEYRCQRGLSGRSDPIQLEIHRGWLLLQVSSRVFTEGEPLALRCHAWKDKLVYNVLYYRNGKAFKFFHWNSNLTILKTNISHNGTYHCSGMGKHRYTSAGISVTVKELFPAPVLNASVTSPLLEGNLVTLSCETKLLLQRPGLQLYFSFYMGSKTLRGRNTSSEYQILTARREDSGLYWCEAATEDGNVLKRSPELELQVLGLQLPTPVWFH

[8] = target: T2, FcγRIIb extracellular domain with …; experiment: SPR binding amount, relative to IL6R-BF648/IL6R-L

Binder | relative binding activity to FcγRIIaR (IL6R-F652/IL6R-L = 100) [1] | relative binding activity to FcγRIIb (IL6R-F652/IL6R-L = 100) [2] | amount binding to FcgRIIb/amount binding to FcgRIIaR [3] | binding amount to FcgRIIb when that of GpH7-AP001/GpH7-BF648 is defined as 100 [5] | also measured
B1 | 100 | 100 |  |  | 
B2 | 175 | 112 |  |  | 
B3 | 138 | 101 |  |  | 
B4 | 222 | 127 |  |  | 
B5 | 117 | 101 |  |  | 
B6 | 380 | 108 |  |  | 
B7 | 268 | 112 |  |  | 
B8 | 196 | 109 |  |  | 
B9 | 593 | 122 |  |  | 
B10 | 543 | 124 |  |  | 
B11 | 844 | 139 |  |  | 
B12 |  |  | 0.5 | 65 | binding amount to FcgRIIaR when that of GpH7-AP001/GpH7-BF648 is defined as 100 [4]: 515
B13 |  |  | 4 | 100 | binding amount to FcgRIIaR when that of GpH7-AP001/GpH7-BF648 is defined as 100 [4]: 100
B14 |  |  | 0.5 | 77 | binding amount to FcgRIIaR when that of GpH7-AP001/GpH7-BF648 is defined as 100 [4]: 570
B15 |  |  | 0.8 | 131 | binding amount to FcgRIIaR when that of GpH7-AP001/GpH7-BF648 is defined as 100 [4]: 677
B16 |  |  | 1 | 129 | binding amount to FcgRIIaR when that of GpH7-AP001/GpH7-BF648 is defined as 100 [4]: 538
B17 |  |  | 2.9 | 80 | 
B18 |  |  |  |  | relative binding activity (IL6R-BF648/IL6R-L = 100) [6]: 97; relative binding activity (IL6R-BF648/IL6R-L = 100) [7]: 98; relative binding activity (IL6R-BF648/IL6R-L = 100) [8]: 106
B19 |  |  |  |  | relative binding activity (IL6R-BF648/IL6R-L = 100) [6]: 108; relative binding activity (IL6R-BF648/IL6R-L = 100) [7]: 52; relative binding activity (IL6R-BF648/IL6R-L = 100) [8]: 119
B20 |  |  |  |  | relative binding activity (IL6R-BF648/IL6R-L = 100) [6]: 93; relative binding activity (IL6R-BF648/IL6R-L = 100) [7]: 60; relative binding activity (IL6R-BF648/IL6R-L = 100) [8]: 103
